Here are results for two substances from publication doi:10.1101/481887.

One experiment concerns the target Gly-C2-iLID. The experiment is described as follows: confocal imaging of light-induced recruitment to GUV membranes.
The target of experiment [1] is COPY^o2 (Atto532-stathmin-Atto647N). The experiment is described as follows: other fluorescence titration.
The target in the next experiment is phosphorylated COPY^o2. The experiment is described as follows: other fluorescence titration.

Take “SspB (Stringent starvation protein B) (from UniProt P0AFZ3 1-165) (natural protein)”: the equilibrium dissociation constant (Kd) (commonly the constant that tells how readily two partners part at equilibrium) in the experiment with Gly-C2-iLID came out at 360 nM.

In experiment [1], “α,β-tubulin dimers (from UniProt P02550 1-451; P02554 1-445) (complex)” displayed a KD, high affinity site of 30 nM; a KD, low affinity site of 2000 nM; a k off,stath (1:1 stathmin-tubulin complex; site not named) of 0.048 s⁻¹; a k on,stath (1:1 stathmin-tubulin complex; site not named) of 16 s⁻¹. Further, the stoichiometry N (as a rule, the number of molecules, sites or subunits per partner or assembly) in experiment [1] came out at 2. In the experiment with phosphorylated COPY^o2, this substance had a k off,p-stath (1:1 phosphorylated stathmin-tubulin complex; site not named) of 2.3 s⁻¹ and a k on,p-stath (1:1 phosphorylated stathmin-tubulin complex; site not named) of 1.8 s⁻¹.
